Reference: patent US20060063234A1 (CRUCELL HOLLAND B V, published 2006)

Molecular target: T1, EpCAM (epithelial cell adhesion molecule), human tumor antigen, on LS174T colon carcinoma cells (human, UniProt P16422 24-314)
T1 sequence (looked up): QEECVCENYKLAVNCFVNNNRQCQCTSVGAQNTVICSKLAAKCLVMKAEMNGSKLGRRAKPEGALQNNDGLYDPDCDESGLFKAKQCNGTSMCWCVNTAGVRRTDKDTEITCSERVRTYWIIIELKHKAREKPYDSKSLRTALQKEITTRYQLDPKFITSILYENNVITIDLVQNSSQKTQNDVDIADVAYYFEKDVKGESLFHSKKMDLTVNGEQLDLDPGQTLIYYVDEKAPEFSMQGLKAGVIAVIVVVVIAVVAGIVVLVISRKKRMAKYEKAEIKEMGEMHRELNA
Test: cell-based or functional assay

B1: anti-EpCAM IgM (PER.C6 produced recombinant human IgM, encoded by pEpcamIgM) (antibody)
light: QVQLVQSGAEVKKPGSSVRVSCKASGGTFSSYAISWVRQAPGQGLEWMGGIIPIFGTANYAQKFQGRVTITADESTSTAYMELSSLRSEDTAVYYCARDPFLHYWGQGTLVTVSTGSASAPTLFPLVSCENSPSDTSSVAVGCLAQDFLPDSITFSWKYKNNSDISSTRGFPSVLRGGKYAATSQVLLPSKDVMQGTDEHVVCKVQHPNGNKEKNVPLPVIAELPPKVSVFVPPRDGFFGNPRKSKLICQATGFSPRQIQVSWLREGKQVGSGVTTDQVQAEAKESGPTTYKVTSTLTIKESDWLSQSMFTCRVDHRGLTFQQNASSMCVPDQDTAIRVFAIPPSFASIFLTKSTKLTCLVTDLTTYDSVTISWTRQNGEAVKTHTNISESHPNATFSAVGEASICEDDWNSGERFTCTVTHTDLPSPLKQTISRPKGVALHRPDVYLLPPAREQLNLRESATITCLVTGFSPADVFVQWMQRGQPLSPEKYVTSAPMPEPQAPGRYFAHSILTVSEEEWNTGETYTCVVAHEALPNRVTERTVDKSTGKPTLYNVSLVMSDTAGTCY
heavy: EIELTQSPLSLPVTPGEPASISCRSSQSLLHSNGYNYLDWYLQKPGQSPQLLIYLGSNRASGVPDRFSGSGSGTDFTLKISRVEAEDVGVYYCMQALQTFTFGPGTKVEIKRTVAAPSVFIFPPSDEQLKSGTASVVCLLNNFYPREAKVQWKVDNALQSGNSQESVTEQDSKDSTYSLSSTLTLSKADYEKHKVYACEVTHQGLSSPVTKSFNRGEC
  complement dependent cytotoxicity on LS174T cells: potency relative to anti-EpCAM IgG: ~10 fold
